Results reported in US20250375499A1 (FLAGSHIP PIONEERING INNOVATIONS VII, published 2025).
Where two headings read alike, the source gives them in different places.

T1: TNFR2 ECD-Fc (human, UniProt P20333)
T1 construct: Fc region, C-terminal fusion partner; also called TNFR2 ECD-hFc; Ichor Bio ICH4022
T1 sequence (TNFR2 ECD-Fc fusion chain): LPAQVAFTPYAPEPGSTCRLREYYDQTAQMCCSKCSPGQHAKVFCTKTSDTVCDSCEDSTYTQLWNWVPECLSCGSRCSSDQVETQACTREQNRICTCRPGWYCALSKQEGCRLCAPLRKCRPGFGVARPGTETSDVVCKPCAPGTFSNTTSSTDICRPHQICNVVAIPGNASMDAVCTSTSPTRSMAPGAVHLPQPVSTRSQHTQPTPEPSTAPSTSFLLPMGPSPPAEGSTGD

B1: recombinant human TL1A (Acro Bio TLA-H5244), plate bound (ligand)
chain: LKGQEFAPSHQQVYAPLRADGDKPRAHLTVVRQTPTQHFKNQFPALHWEHELGLAFTKNRMNYTNKFLLIPESGDYFIYSQVTFRGMTSECSEIRQAGRPNKPDSITVVITKVTDSYPEPTQLLMGTKSVCEVGSNWFQPIYLGAMFSLQEGDKLMVNVSDISLVDYTKEDKTFFGAFLL
notes: Bought protein; also called hTL1A; Tumor Necrosis Factor Ligand Superfamily Member 15
B2: recombinant human LIGHT (Acro Bio LIT-H5242) (ligand)
chain: LIQERRSHEVNPAAHLTGANSSLTGSGGPLLWETQLGLAFLRGLSYHDGALVVTKAGYYYIYSKVQLGGVGCPLGLASTITHGLYKRTPRYPEELELLVSQQSPCGRATSSSRVWWDSSFLGGVVHLEAGEKVVVRVLDERLVRLRDGTRSYFGAFMV
notes: Bought protein; also called hLIGHT; Tumor Necrosis Factor Ligand Superfamily Member 14
B3: recombinant human FASL (Acro Bio HAL-H5241) (ligand)
chain: PSPPPEKKELRKVAHLTGKSNSRSMPLEWEDTYGIVLLSGVKYKKGGLVINETGLYFVYSKVYFRGQSCNNLPLSHKVYMRNSKYPQDLVMMEGKMMSYCTTGQMWARSSYLGAVFNLTSADHLYVNVSELSLVNFEESQTFFGLYKL
notes: Bought protein; also called hFASL; FAS Ligand
B4: DcR3-hFc (Fc fusion)
chain: VAETPTYPWRDAETGERLVCAQCPPGTFVQRPCRRDSPTTCGPCPPRHYTQFWNYLERCRYCNVLCGEREEEARACHATHNRACRCRTGFFAHAGFCLEHASCPPGAGVIAPGTPSQNTQCQPCPPGTFSASSSSSEQCQPHRNCTALGLALNVPGSSSHDTLCTSCTGFPLSTRVPGAEECERAVIDFVAFQDISIKRLQRLLQALEAPEGWGPTPRAGRAALQLKLRRRLTELLGAQDGALLVRLLQALRVARMPGLERSVRERFLPVH
notes: also called Acro Bio TNB-H5255; not shown: The hIgG1 Fc at the C-terminus, and any linker, of the vendor reagent Acro Bio TNB-H5255

Experiments:
TNFR2 ECD-Fc [1] = target: T1, TNFR2 ECD-Fc; experiment: ELISA: plate coated with recombinant human TL1A (2 µg/mL), Fc-tagged protein titrated 3-fold from 10 nM, anti-human Fc HRP, OD 450 nm background subtracted
Protocol: (§1) Briefly, Maxisorp 384 well plates (Thermo Nunc Cat #P6366-1CS) were coated with 25 μL of 2 μg/mL of recombinant human TNFSF ligands: TNFα (Acro Bio TNA-H5228), TL1A (Acro Bio TLA-H5244), FASL (Acro Bio HAL-H5241), or LIGHT (Acro Bio LIT-H5242) in PBS or were coated with PBS alone overnight at 4° C. The plates were washed 3 times with 0.1% PBS-T and incubated with SuperBlock blocking buffer (Thermo Fisher 37515) for 1 hour at room temperature with shaking at 400 RPM. […] Plates were incubated for 1 hour at room temperature with shaking at 400 RPM. ELISA plates were washed 3 times with 0.1% PBS-T and incubated with an anti-human Fc HRP conjugated secondary antibody (ThermoFisher Scientific Cat #H10307) 1:2000 in 0.1% PBS-T for 1 hour at room temperature with shaking at 400 RPM. The plates were washed 3 times with 0.1% PBS-T and incubated with 20 μL of TMB (ThermoFisher Scientific Cat #34028) per well. The reaction was stopped at 5 minutes by adding 20 μL of Stop Solution (BioFX LSTP-1000-01). […] Blank subtracted ODs were calculated by subtracting the ODs from the blank plate from the readings from each of the ligand plates and data was plotted using PRISM (version 10.0.2).

TNFR2 ECD-Fc [2] = target: T1, TNFR2 ECD-Fc; experiment: ELISA: plate coated with recombinant human LIGHT (2 µg/mL), Fc-tagged protein titrated 3-fold from 10 nM, anti-human Fc HRP, OD 450 nm background subtracted
Protocol: as §1

TNFR2 ECD-Fc [3] = target: T1, TNFR2 ECD-Fc; experiment: ELISA: plate coated with recombinant human FASL (2 µg/mL), Fc-tagged protein titrated 3-fold from 10 nM, anti-human Fc HRP, OD 450 nm background subtracted
Protocol: as §1

[4] = target: B2; experiment: ELISA: plate coated with recombinant human LIGHT (2 µg/mL), Fc-tagged protein titrated 3-fold from 10 nM, anti-human Fc HRP, OD 450 nm background subtracted
Protocol: as §1

[5] = target: B1; experiment: ELISA: plate coated with recombinant human TL1A (2 µg/mL), Fc-tagged protein titrated 3-fold from 10 nM, anti-human Fc HRP, OD 450 nm background subtracted
Protocol: as §1

[6] = target: B3; experiment: ELISA: plate coated with recombinant human FASL (2 µg/mL), Fc-tagged protein titrated 3-fold from 10 nM, anti-human Fc HRP, OD 450 nm background subtracted
Protocol: as §1

[7] = target: B3; experiment: as above; remark: listed apart in the source
Protocol: as §1

[8] = target: B2; experiment: ELISA: plate coated with recombinant human LIGHT (2 µg/mL), Fc-tagged protein titrated 3-fold from 10 nM, anti-human Fc HRP, OD 450 nm background subtracted; remark: listed apart in the source
Protocol: as §1

[9] = target: B3; experiment: ELISA: plate coated with recombinant human FASL (2 µg/mL), Fc-tagged protein titrated 3-fold from 10 nM, anti-human Fc HRP, OD 450 nm background subtracted; remark: listed apart in the source
Protocol: as §1

[10] = target: B3; experiment: as above; remark: listed apart in the source
Protocol: as §1

[11] = target: B1; experiment: ELISA: plate coated with recombinant human TL1A (2 µg/mL), Fc-tagged protein titrated 3-fold from 10 nM, anti-human Fc HRP, OD 450 nm background subtracted; remark: listed apart in the source
Protocol: as §1

[12] = target: B2; experiment: ELISA: plate coated with recombinant human LIGHT (2 µg/mL), Fc-tagged protein titrated 3-fold from 10 nM, anti-human Fc HRP, OD 450 nm background subtracted; remark: listed apart in the source
Protocol: as §1

[13] = target: B2; experiment: as above; remark: listed apart in the source
Protocol: as §1

[14] = target: B1; experiment: ELISA: plate coated with recombinant human TL1A (2 µg/mL), Fc-tagged protein titrated 3-fold from 10 nM, anti-human Fc HRP, OD 450 nm background subtracted; remark: listed apart in the source
Protocol: as §1

[15] = target: B2; experiment: ELISA: plate coated with recombinant human LIGHT (2 µg/mL), Fc-tagged protein titrated 3-fold from 10 nM, anti-human Fc HRP, OD 450 nm background subtracted; remark: listed apart in the source
Protocol: as §1

[16] = target: B1; experiment: ELISA: plate coated with recombinant human TL1A (2 µg/mL), Fc-tagged protein titrated 3-fold from 10 nM, anti-human Fc HRP, OD 450 nm background subtracted; remark: listed apart in the source
Protocol: as §1

[17] = target: B3; experiment: ELISA: plate coated with recombinant human FASL (2 µg/mL), Fc-tagged protein titrated 3-fold from 10 nM, anti-human Fc HRP, OD 450 nm background subtracted; remark: listed apart in the source
Protocol: as §1

[18] = target: B1; experiment: ELISA: plate coated with recombinant human TL1A (2 µg/mL), Fc-tagged protein titrated 3-fold from 10 nM, anti-human Fc HRP, OD 450 nm background subtracted; remark: listed apart in the source
Protocol: as §1

Binder: B1
- binding result (TNFR2 ECD-Fc [1]): no binding (tested: 10 nM (LOG[Dose] 1))

Binder: B2
- binding result (TNFR2 ECD-Fc [2]): no binding (tested: 10 nM (LOG[Dose] 1))

Binder: B3
- binding result (TNFR2 ECD-Fc [3]): no binding (tested: 10 nM (LOG[Dose] 1))

Binder: B4
- EC50 (read off the curve) [4]: ~0.2 nM
- EC50 (read off the curve) [5]: ~0.1 nM
- EC50 (read off the curve) [6]: ~0.1 nM
- EC50 (read off the curve) [7]: ~0.1 nM
- EC50 (read off the curve) [8]: ~0.2 nM
- EC50 (read off the curve) [9]: ~0.1 nM
- EC50 (read off the curve) [10]: ~0.1 nM
- EC50 (read off the curve) [11]: ~0.1 nM
- EC50 (read off the curve) [12]: ~0.2 nM
- EC50 (read off the curve) [13]: ~0.2 nM
- EC50 (read off the curve) [14]: ~0.1 nM
- EC50 (read off the curve) [15]: ~0.2 nM
- EC50 (read off the curve) [16]: ~0.1 nM
- EC50 (read off the curve) [17]: ~0.1 nM
- EC50 (read off the curve) [18]: ~0.1 nM
